Among the targets are BLM642-1290 R979/982A (UniProt P54132 642-1290, R979A;R982A); BLM642-1290 (UniProt P54132 642-1290); BLM642-1290 R959A (UniProt P54132 642-1290, R959A); BLM642-1290 H798A (UniProt P54132 642-1290, H798A); BLM642-1290 R979A (UniProt P54132 642-1290, R979A); BLM642-1290 Q975V (UniProt P54132 642-1290, Q975V); BLM642-1290 R982A (UniProt P54132 642-1290, R982A).
Assay in all cases: fluorescence anisotropy

The source of these data is publication PMC2094072.

Sequence of BLM642-1290 Q975V (P54132 642-1290 Q975V): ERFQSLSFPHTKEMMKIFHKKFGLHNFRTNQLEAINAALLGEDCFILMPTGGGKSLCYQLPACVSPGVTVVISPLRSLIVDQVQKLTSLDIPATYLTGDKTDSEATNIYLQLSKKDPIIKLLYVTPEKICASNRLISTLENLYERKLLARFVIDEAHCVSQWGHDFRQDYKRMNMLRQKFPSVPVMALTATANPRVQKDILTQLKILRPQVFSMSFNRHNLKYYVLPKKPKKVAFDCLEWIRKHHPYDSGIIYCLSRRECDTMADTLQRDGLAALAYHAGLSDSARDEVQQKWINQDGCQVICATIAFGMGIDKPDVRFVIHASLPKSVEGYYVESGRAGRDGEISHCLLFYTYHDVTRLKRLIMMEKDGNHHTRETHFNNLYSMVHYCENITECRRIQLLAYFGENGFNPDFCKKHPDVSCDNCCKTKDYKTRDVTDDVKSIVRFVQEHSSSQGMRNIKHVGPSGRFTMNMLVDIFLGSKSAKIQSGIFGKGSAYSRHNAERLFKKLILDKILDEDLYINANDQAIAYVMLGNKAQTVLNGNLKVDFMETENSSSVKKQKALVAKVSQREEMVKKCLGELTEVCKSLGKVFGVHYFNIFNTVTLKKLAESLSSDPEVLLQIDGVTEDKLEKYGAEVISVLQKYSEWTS
Sequence of BLM642-1290 R982A (P54132 642-1290 R982A): as the sequence (P54132 642-1290 Q975V) above, with V334Q, R341A counted along it
Sequence of BLM642-1290 R959A (P54132 642-1290 R959A): as the sequence (P54132 642-1290 Q975V) above, with R318A, V334Q counted along it
Sequence of BLM642-1290 H798A (P54132 642-1290 H798A): as the sequence (P54132 642-1290 Q975V) above, with H157A, V334Q counted along it
Sequence of BLM642-1290 R979/982A (P54132 642-1290 R979A/R982A): as the sequence (P54132 642-1290 Q975V) above, with V334Q, R338A, R341A counted along it
Sequence of BLM642-1290 R979A (P54132 642-1290 R979A): as the sequence (P54132 642-1290 Q975V) above, with V334Q, R338A counted along it
Sequence of BLM642-1290 (P54132 642-1290): as the sequence (P54132 642-1290 Q975V) above, with V334Q counted along it

On to GGGTTAGGGTTAGGGTTAGGG (ssDNA) [oligonucleotide D (21-mer)], for which the Kd was 1.32 ± 0.49 nM with BLM642-1290 R979/982A; 1.11 ± 0.11 nM in the series with BLM642-1290; 4.15 ± 0.4 nM with BLM642-1290 R959A; 5.03 ± 0.55 nM with BLM642-1290 H798A; 1.91 ± 0.46 nM with BLM642-1290 R979A; 3.31 ± 0.4 nM in the series with BLM642-1290 Q975V. Also, the Kd with BLM642-1290 R982A came out at 2.13 ± 0.32 nM.
